Substrate: COP(=O)(O)OC(=O)[C@@H]1N2C(=O)[C@@H](NC(=O)Cc3ccccc3)[C@H]2SC1(C)C
Test: Km against beta-lactamase in Escherichia coli

B1: Beta-lactamase TEM (Escherichia coli), P62593 (protein)
chain: MSIQHFRVALIPFFAAFCLPVFAHPETLVKVKDAEDQLGARVGYIELDLNSGKILESFRPEERFPMMSTFKVLLCGAVLSRVDAGQEQLGRRIHYSQNDLVEYSPVTEKHLTDGMTVRELCSAAITMSDNTAANLLLTTIGGPKELTAFLHNMGDHVTRLDRWEPELNEAIPNDERDTTMPAAMATTLRKLLTGELLTLASRQQLIDWMEADKVAGPLLRSALPAGWFIADKSGAGERGSRGIIAALGPDGKPSRIVVIYTTGSQATMDERNRQIAEIGASLIKHW
**Q.** For B1, which Km is on record?
**A.** > 50 mM
